The values below are quoted from earlier work in paper PMC4739856.

As a reminder, the pKa is the pH at which an ionisable group is half protonated.

In data set [1] the target is T1, His119 (UniProt position 145, PYVPVHFDASV). Description: NMR. The following applies: apo (ligand-free) RNase A.
Data set [2] has as its target T2, His12 (UniProt position 38, KFERQHMDSST). Description: NMR. The following applies: apo (ligand-free) RNase A.
In data set [3] the target is T1, His119.
Data set [4] deals with T2, His12.

Values joined by “and” are separate entries in the source; they are usually repeats but may differ in a detail not shown here. Equal entries are not always repeated. Where two headings read alike, the source gives them in different places.

In the case of “Ribonuclease A (RNase A, pancreatic ribonuclease) (Bos taurus)”, the pKa in the data set with His119 [1] was 6.03 and 6.34; in the data set with His12 [2] it was 5.87 and 6.18; with His119 [3] (apo (ligand-free) RNase A), 6.2; in the data set with His119 [3] (complex with 3'-CMP), 7.4; with His12 [4] (apo (ligand-free) RNase A) it was 5.8; in the data set with His12 [4] (complex with 3'-CMP), 8.0.
